From article PMC7583764

Molecular target: recombinant human PGRN (human) (UniProt P28799)
Chain of UniProt P28799 (P28799 18-593): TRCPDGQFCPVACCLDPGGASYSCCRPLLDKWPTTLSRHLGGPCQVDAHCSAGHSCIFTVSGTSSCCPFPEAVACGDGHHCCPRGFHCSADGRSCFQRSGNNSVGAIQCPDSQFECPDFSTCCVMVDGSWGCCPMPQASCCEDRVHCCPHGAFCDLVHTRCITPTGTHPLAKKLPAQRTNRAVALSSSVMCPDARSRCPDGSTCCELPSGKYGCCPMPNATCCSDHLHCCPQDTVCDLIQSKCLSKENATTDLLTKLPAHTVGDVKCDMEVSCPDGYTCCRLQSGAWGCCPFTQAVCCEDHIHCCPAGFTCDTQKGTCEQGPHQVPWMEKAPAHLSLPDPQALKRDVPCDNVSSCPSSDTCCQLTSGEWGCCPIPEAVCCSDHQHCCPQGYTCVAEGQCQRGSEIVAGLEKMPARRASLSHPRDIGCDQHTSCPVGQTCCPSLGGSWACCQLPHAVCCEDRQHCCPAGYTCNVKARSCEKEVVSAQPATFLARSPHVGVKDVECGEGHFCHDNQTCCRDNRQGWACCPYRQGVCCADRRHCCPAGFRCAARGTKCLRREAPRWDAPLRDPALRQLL

recombinant human Flag-YB-1 (from UniProt P67809 1-324) (natural protein)
inhibition of TNF-induced NF-κB luciferase reporter activity in transfected human embryonic kidney cells by combined stimulation with YB-1 and PGRN: 65%
